From patent US20150011421

Key:
[1] = system: T1, Biotin-AEEEIYGEFEAKKKKC (SEQ ID NO:4)
T1 sequence: AEEEIYGEFEAKKKKC

[2] = system: H2N-(CH2)4-CO-(SEQ ID NO:1)-NH-CH2-Fc
[3] = system: H2N-(CH2)4-CO-(SEQ ID NO:5)-NH-CH2-Fc
[4] = system: H2N-(CH2)4-CO-(SEQ ID NO:2)-NH-CH2-Fc
[5] = target: T2, Z-Ala-Ala-Asn-AMC
T2 chain: AAN

[6] = target: T3, H2N-(CH2)4-CO-(SEQ ID NO:1)-NH-CH2-Fc
T3 chain: AANL

[7] = target: T4, Biotin-AEEEIYGEFEAKKKKC (SEQ ID NO:4), fully phosphorylated by c-Src kinase
T4 chain: AEEEIYGEFEAKKKKC

Active c-Src kinase protein (N-terminal 6His-tagged recombinant human c-Src, molecular weight 61.7 kDa)
phosphorylation of the immobilized peptide [1]: The peptide at the VACNF NEA was fully phosphorylated with 1-hour further incubation in c-Src kinase solution

Purified recombinant human cathepsin B (R&D Systems), activated in 5 mM DTT and 25 mM MES buffer (pH 5.0)
ACV peak current after adding activated cathepsin B (negative control) [2]: The peak current ip,acv of these two tetrapeptides did not show the characteristic exponential decay while the activated cathepsin B was added | ACV peak current after adding activated cathepsin B (negative control, P1 Arg replaced by Asn) [3]: The peak current ip,acv of these two tetrapeptides did not show the characteristic exponential decay while the activated cathepsin B was added | cleavage product by HPLC/MS after 2 h incubation in solution [4]: The cleavage product, Phe-Gly-NH-CH2-Fc appeared at 37 min, was found confirming that the proteolysis took place at the arginine site

B1: Recombinant human legumain/asparaginyl endopeptidase (R&D Systems), activated in 50 mM CH3COONa (pH 4.0) and 100 mM NaCl (protein)
chain: VPIDDPEDGGKHWVVIVAGSNGWYNYRHQADACHAYQIIHRNGIPDEQIVVMMYDDIAYSEDNPTPGIVINRPNGTDVYQGVPKDYTGEDVTPQNFLAVLRGDAEAVKGIGSGKVLKSGPQDHVFIYFTDHGSTGILVFPNEDLHVKDLNETIHYMYKHKMYRKMVFYIEACESGSMMNHLPDNINVYATTAANPRESSYACYYDEKRSTYLGDWYSVNWMEDSDVEDLTKETLHKQYHLVKSHTNTSHVMQYGNKTISTMKVMQFQGMKRKASSPVPLPPVTHLDLTPSPDVPLTIMKRKLMNTN
specificity constant kcat/KM (fluorescence assay, FL) [5]: 4300 M⁻¹ s⁻¹ | (kcat/Km)[E0], slope of reaction rate vs. surface adsorbed Fc, [E0]=773 nM [6]: a slope of 6.32×10^-4 s^-1 | (kcat/Km)[E0], slope of vi vs. Γsurf, [E0]=80.1 nM [6]: the slope of 6.30×10^-4 s^-1 at [E0]=80.1 nM | specificity constant kcat/KM (electrochemistry, EC, VACNF NEAs) [6]: 11300 M⁻¹ s⁻¹ | specificity constant kcat/Km (ACV on VACNF NEA), as given in the summary of Example 1 [6]: 8200 M⁻¹ s⁻¹ | specificity constant kcat/Km (ACV, single experiment at 80.1 nM) [6]: 7900 M⁻¹ s⁻¹ | time constant in the fit of surface adsorbed Fc vs. time [6]: the time constant is 1101 s (~48 min) | time constant of the exponential decay of the ACV peak current after adding legumain [6]: The time constant is 1076 s (~18 min.)

B2: PTP1B (residues 1-322, molecular weight 37.4 kDa) (protein)
chain: MEMEKEFEQIDKSGSWAAIYQDIRHEASDFPCRVAKLPKNKNRNRYRDVSPFDHSRIKLHQEDNDYINASLIKMEEAQRSYILTQGPLPNTCGHFWEMVWEQKSRGVVMLNRVMEKGSLKCAQYWPQKEEKEMIFEDTNLKLTLISEDIKSYYTVRQLELENLTTQETREILHFHYTTWPDFGVPESPASFLNFLFKVRESGSLSPEHGPVVVHCSAGIGRSGTFCLADTCLLLMDKRKDPSSVDIKKVLLEMRKFRMGLIQTADQLRFSYLAVIEGAKFIMGDSSVQDQWKELSHEDLEPPPEHIPPPPRPPKRILEPHNG
(kcat/Km)[E0], slope of -d(|Z|/|Z0|)/dt vs. |Z|/|Z0|, [E0]=2.4 nM [7]: a slope of 0.0522 s^-1 | decrease in |Z| (REIS) over ~100 s after adding 2.4 nM PTP1B [7]: A sharp decrease in |Z| by ~1,150Ω (~6.3%) | decrease in |Z| (REIS) over ~100 s after adding 2.4 nM PTP1B, percent [7]: A sharp decrease in |Z| by ~1,150Ω (~6.3%) | specificity constant kcat/Km (REIS, 2.4 nM PTP1B) [7]: 2.2e+07 M⁻¹ s⁻¹ | specificity constant kcat/Km (REIS, average of 7 data sets at three PTP1B concentrations) [7]: an average value of 2.1×10^7 M^-1 s^-1 and a standard deviation of 1.0×10^6 M^-1 s^-1
